Consider 15 substances from publication PMC4624033.

Common to all, as to assay: AUC
Test [1] addresses Pcdhα7 EC1-EC5 (mouse).
The target of test [2] is PcdhαC2 EC1-EC4 (mouse).
Test [3] deals with PcdhαC2 EC1-EC5 (mouse).
Test [4] has as its target PcdhαC2 EC1-EC6 (complete ectodomain) (mouse).
For test [5], the target named is PcdhαC2 EC1-EC6 S118R (mouse).
In test [6] the target is PcdhαC2 EC2-EC6 (mouse).
The target in test [7] is PcdhγA8 EC1-EC4 (mouse).
The target of test [8] is PcdhγA8 EC2-EC6 (mouse).
Test [9] addresses PcdhγB6 EC1-EC4.
In test [10] the target is PcdhγB6 EC1-EC6 (complete ectodomain).
The target of test [11] is PcdhγC5 EC1-EC5 (mouse).
Test [12] has as its target PcdhγC5 EC1-EC6 (complete ectodomain) (mouse).
Test [13] has as its target PcdhγC5 EC1-EC6 S116R (mouse).
The target in test [14] is PcdhγC5 EC2-EC6 (mouse).
Test [15] has as its target PcdhγC5 EC2-EC6 S116R (mouse).

One may read the Kd as the equilibrium constant for the complex coming apart. Read a low Kd as higher affinity. As usually defined, the stoichiometry N is a count of units in the complex or per binding partner. Consider Pcdhα7 EC1-EC5 (domain or fragment), for which, in test [1], the Kd is 2.9 µM and the stoichiometry N turned out to be 2.
In [2], PcdhαC2 EC1-EC4 (domain or fragment) returned a Kd of 20 µM and a stoichiometry N of 2.
Regarding PcdhαC2 EC1-EC5 (domain or fragment), in test [3], the Kd came to 5.9 µM and the stoichiometry N was 2.
In the case of “PcdhαC2 EC1-EC6 (complete ectodomain) (domain or fragment)”, in test [4], the Kd was 0.1 µM and the stoichiometry N worked out at 4.
“PcdhαC2 EC1-EC6 S118R (domain or fragment)”: in test [5], the Kd amounted to 1.8 µM and the stoichiometry N turned out to be 4.
Substance PcdhαC2 EC2-EC6 (domain or fragment) showed a stoichiometry N in [6] of 2.
Take PcdhγA8 EC1-EC4 (domain or fragment): in test [7], the Kd turned out to be 30 µM and the stoichiometry N came to 2.
On to PcdhγA8 EC2-EC6 (domain or fragment), for which, in test [8], the Kd was found to be 23 µM and the stoichiometry N came out at 2.
In test [9], PcdhγB6 EC1-EC4 (domain or fragment) gave a Kd of 29 µM and a stoichiometry N of 2.
In turn, “PcdhγB6 EC1-EC6 (complete ectodomain) (domain or fragment)” yielded a stoichiometry N in test [10] of 4.
As to PcdhγC5 EC1-EC5 (domain or fragment), in test [11], the Kd was found to be 100 µM and the stoichiometry N came out at 2.
For the substance “PcdhγC5 EC1-EC6 (complete ectodomain) (domain or fragment)”, the stoichiometry N in test [12] was found to be 4.
Take “PcdhγC5 EC1-EC6 S116R (domain or fragment)”: in test [13], the Kd is 5.7 µM and the stoichiometry N was determined as 2.
In test [14], PcdhγC5 EC2-EC6 (domain or fragment) showed a stoichiometry N of 2.
On to “PcdhγC5 EC2-EC6 S116R (domain or fragment)”, for which, in test [15], the Kd is 14 µM and the stoichiometry N amounted to 2.
